Results published in US20260103529A1, “Amino Acid Sequences Directed Against the Melanocortin 4 Receptor and Polypeptides Comprising the Same for the Treatment of MC4R-Related Diseases and Disorders” (Confo Therapeutics N.V., priority 2022, published 2026).

What was measured:
Assay in all cases: cell-based or functional assay
[1] = biological target: human MC3R (melanocortin 3 receptor) (human) (UniProt P41968)
[2] = biological target: human wild type MC4R (melanocortin 4 receptor) expressed on HEK293/HEK293T cells (human) (UniProt P32245)
human wild type MC4R (melanocortin 4 receptor) expressed on HEK293/HEK293T cells (human), sequence (P32245 whole entry): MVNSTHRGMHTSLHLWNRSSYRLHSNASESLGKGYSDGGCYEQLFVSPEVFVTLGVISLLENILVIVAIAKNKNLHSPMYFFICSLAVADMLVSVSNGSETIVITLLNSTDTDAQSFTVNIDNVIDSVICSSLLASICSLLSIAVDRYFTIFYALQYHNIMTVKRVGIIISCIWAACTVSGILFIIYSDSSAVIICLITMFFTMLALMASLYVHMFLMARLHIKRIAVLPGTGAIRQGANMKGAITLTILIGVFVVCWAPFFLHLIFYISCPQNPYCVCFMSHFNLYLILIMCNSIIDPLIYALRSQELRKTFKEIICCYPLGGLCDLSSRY

[3] = biological target: human MC1R (melanocortin 1 receptor) (human) (UniProt Q01726)
human MC1R (melanocortin 1 receptor) (human), sequence (Q01726 whole entry): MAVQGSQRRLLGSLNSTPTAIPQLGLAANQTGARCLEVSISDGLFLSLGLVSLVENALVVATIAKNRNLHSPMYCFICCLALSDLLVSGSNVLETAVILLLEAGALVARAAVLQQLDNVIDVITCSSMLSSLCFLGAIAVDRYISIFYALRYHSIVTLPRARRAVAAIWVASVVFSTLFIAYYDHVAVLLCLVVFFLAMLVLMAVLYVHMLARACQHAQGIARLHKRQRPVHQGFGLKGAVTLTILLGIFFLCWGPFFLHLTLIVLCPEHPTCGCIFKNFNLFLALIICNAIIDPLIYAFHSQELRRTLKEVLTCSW

[4] = biological target: human MC5R (melanocortin 5 receptor) (human) (UniProt P33032)
human MC5R (melanocortin 5 receptor) (human), sequence (P33032 whole entry): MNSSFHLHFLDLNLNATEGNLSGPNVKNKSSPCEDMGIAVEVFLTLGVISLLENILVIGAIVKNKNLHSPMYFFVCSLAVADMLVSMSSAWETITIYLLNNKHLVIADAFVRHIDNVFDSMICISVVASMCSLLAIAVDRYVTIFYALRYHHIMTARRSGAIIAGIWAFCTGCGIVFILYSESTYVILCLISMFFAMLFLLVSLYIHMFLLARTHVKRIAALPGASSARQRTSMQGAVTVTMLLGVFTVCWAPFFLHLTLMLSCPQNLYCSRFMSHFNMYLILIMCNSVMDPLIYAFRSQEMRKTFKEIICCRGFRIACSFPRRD

human MC3R (melanocortin 3 receptor) (human), sequence (P41968 whole entry): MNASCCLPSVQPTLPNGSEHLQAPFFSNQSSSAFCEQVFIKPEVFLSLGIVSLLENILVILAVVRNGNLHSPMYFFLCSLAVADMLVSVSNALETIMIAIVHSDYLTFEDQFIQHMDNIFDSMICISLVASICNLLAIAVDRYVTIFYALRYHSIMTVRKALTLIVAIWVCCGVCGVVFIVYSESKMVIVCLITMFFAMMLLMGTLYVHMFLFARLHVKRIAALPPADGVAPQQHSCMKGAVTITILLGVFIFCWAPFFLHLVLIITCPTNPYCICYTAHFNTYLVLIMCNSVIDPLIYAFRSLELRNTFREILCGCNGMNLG

Substance: setmelanotide (peptide)
- in vitro cAMP potency EC50 (GloSensor) [1]: 2.1 nM
- Gs ConfoSensor, 1 mM Ca^2+, EC50 [2]: 0.6 nM
- Gs ConfoSensor, No Ca^2+, EC50 [2]: 12 nM
- in vitro cAMP potency EC50 (GloSensor) [2]: 2 nM
- β-arrestin recruitment, 1 mM Ca^2+, EC50 [2]: 1.3 nM
- β-arrestin recruitment, No Ca^2+, EC50 [2]: 18 nM
- in vitro cAMP potency EC50 (GloSensor) [3]: 11.5 nM
- in vitro cAMP potency EC50 (GloSensor) [4]: 451 nM
